Blank lines part the entries; values can stand above or below the compound they belong to. Numbered stars: 1 amine (or outer) side, 2 acyl side, 3 side chain; on linkers, the order of the positions; unused ones are H or OH. Square brackets hold non-standard residues; d marks the D form. Side chains are listed from the residue outwards. Peptide text beside a SMILES is read from it. * marks the point of attachment. Ethylenediamine = C(CN[*:2])N[*:1]; Hyp = O=C(O)[C@@H]1C[C@@H](O)CN1; Phg = N[C@H](C(=O)O)c1ccccc1; CO = O=C([*:1])[*:2]; Bn = c1ccc(C*)cc1
Columns and labels:
[1] = species, matrix, method and reference not given; cited from earlier work
[2] = molecular target: human somatostatin receptor 5 (human) (UniProt P35346)
[3] = molecular target: human somatostatin receptor 3 (human) (UniProt P32745)
[4] = molecular target: human somatostatin receptor 1 (human) (UniProt P30872); assay: radioligand binding; competition with 3-[125I]iodotyrosyl11 somatostatin-14 on membrane extracts of CHO-K1 cells expressing the human receptor; agonist 10^-11 to 3 x 10^-7 M, n = 2; 60 min at 25 °C, filtered and counted
[5] = molecular target: human somatostatin receptor 2 (human) (UniProt P30874); assay: as above
[6] = molecular target: human somatostatin receptor 3 (human) (UniProt P32745); assay: as above
[7] = molecular target: human somatostatin receptor 5 (human) (UniProt P35346); assay: as above

human somatostatin receptor 5 (human), sequence (P35346 whole entry): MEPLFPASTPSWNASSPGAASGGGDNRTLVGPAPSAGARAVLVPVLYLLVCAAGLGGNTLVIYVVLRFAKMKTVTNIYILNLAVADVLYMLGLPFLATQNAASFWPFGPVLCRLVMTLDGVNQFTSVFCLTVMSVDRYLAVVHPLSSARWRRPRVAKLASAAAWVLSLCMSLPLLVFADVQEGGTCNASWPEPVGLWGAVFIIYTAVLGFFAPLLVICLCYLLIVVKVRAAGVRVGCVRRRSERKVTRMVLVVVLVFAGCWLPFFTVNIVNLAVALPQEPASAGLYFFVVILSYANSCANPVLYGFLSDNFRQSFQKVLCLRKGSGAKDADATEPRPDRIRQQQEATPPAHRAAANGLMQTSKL
human somatostatin receptor 3 (human), sequence (P32745 whole entry): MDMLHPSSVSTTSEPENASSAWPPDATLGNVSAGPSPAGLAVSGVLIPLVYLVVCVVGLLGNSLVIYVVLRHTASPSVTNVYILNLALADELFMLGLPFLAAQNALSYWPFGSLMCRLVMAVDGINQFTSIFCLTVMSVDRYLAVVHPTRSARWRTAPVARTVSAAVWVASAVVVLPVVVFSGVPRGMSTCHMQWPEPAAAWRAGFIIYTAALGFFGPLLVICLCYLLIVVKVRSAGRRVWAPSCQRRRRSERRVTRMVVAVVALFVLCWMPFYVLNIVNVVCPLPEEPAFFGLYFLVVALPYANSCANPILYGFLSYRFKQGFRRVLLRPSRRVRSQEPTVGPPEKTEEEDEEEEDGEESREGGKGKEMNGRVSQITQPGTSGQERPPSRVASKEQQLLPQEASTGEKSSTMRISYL
human somatostatin receptor 2 (human), sequence (P30874 whole entry): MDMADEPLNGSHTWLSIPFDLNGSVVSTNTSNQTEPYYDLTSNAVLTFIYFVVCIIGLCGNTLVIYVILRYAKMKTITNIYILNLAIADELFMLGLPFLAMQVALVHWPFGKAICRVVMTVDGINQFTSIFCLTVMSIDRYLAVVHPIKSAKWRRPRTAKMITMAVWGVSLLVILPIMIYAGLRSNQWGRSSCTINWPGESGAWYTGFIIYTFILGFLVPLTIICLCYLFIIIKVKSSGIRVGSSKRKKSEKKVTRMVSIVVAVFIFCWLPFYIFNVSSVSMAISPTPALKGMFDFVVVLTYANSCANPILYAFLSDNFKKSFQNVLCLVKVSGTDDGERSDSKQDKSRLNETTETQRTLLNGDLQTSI
human somatostatin receptor 1 (human), sequence (P30872 whole entry): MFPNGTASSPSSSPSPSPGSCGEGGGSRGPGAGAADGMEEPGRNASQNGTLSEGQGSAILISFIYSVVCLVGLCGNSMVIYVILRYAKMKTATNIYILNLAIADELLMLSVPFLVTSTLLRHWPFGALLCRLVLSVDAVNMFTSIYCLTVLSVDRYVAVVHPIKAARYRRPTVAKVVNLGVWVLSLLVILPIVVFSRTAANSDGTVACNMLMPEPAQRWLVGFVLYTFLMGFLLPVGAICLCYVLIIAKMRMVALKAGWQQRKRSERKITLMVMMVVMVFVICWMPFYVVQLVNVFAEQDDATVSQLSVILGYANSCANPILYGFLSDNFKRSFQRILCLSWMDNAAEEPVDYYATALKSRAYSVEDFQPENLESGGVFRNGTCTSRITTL

Compound: C[C@@H](O)[C@@H]1NC(=O)[C@H](CCCCN)NC(=O)[C@@H](Cc2c[nH]c3ccccc23)NC(=O)[C@H](Cc2ccccc2)NC(=O)[C@@H](NC(=O)[C@H](N)Cc2ccccc2)CSSC[C@@H](C(=O)N[C@H](CO)[C@@H](C)O)NC1=O [Octreotide]
Half-time life [1]: 2 h

Compound: NCCCC[C@@H]1NC(=O)[C@@H](Cc2c[nH]c3ccccc23)NC(=O)[C@H](c2ccccc2)NC(=O)[C@@H]2C[C@@H](OC(=O)NCCN)CN2C(=O)[C@H](Cc2ccccc2)NC(=O)[C@H](Cc2ccc(OCc3ccccc3)cc2)NC1=O [Pasireotide] (cyclo([Hyp]([CO-Ethylenediamine])[Phg][dW]KY(Bn)F))
Half-time life [1]: 18 h

Compound: C[C@H](N)C(=O)NCC(=O)N[C@H]1CSSC[C@@H](C(=O)O)NC(=O)[C@H](CO)NC(=O)[C@H]([C@@H](C)O)NC(=O)[C@H](Cc2ccccc2)NC(=O)[C@H]([C@@H](C)O)NC(=O)[C@H](CCCCN)NC(=O)[C@H](Cc2c[nH]c3ccccc23)NC(=O)[C@H](Cc2ccccc2)NC(=O)[C@H](Cc2ccccc2)NC(=O)[C@H](CC(N)=O)NC(=O)[C@H](CCCCN)NC1=O [SST-14]
Half-time life [1]: 0.0417 h

Compound: CSCC[C@H](NC(=O)[C@H](C)NC(=O)[C@@H]1CCCN1C(=O)[C@H](CC(N)=O)NC(=O)[C@H](CO)NC(=O)[C@H](CC(N)=O)NC(=O)[C@H](C)NC(=O)[C@@H](N)CO)C(=O)N[C@@H](C)C(=O)N1CCC[C@H]1C(=O)N[C@@H](CCCNC(=N)N)C(=O)N[C@@H](CCC(=O)O)C(=O)N[C@@H](CCCNC(=N)N)C(=O)N[C@@H](CCCCN)C(=O)N[C@@H](C)C(=O)NCC(=O)N[C@H]1CSSC[C@@H](C(=O)O)NC(=O)[C@H](CO)NC(=O)[C@H]([C@@H](C)O)NC(=O)[C@H](Cc2ccccc2)NC(=O)[C@H]([C@@H](C)O)NC(=O)[C@H](CCCCN)NC(=O)[C@H](Cc2c[nH]c3ccccc23)NC(=O)[C@H](Cc2ccccc2)NC(=O)[C@H](Cc2ccccc2)NC(=O)[C@H](CC(N)=O)NC(=O)[C@H](CCCCN)NC1=O [SST-28]
Half-time life [1]: 0.0333 h

receptor internalization in U2OS cells transfected with SSTR5-tGFP, 10^-9 to 10^-5 M, 7 h; the cell gives 10^-5 M (10^-6 M) (% of activity) [2]: 39.3
Compound: Octreotide (peptide)

EC50 of GIRK2 channel activation via SSTR3 in transfected HEK293 cells (fluorescence membrane potential assay) [3]: 63 nM
receptor internalization in U2OS cells transfected with SSTR3-tGFP, 10^-9 to 10^-5 M, 3 h; the cell gives 10^-5 M (10^-6 M) (% of activity) [3]: 46.3
EC50 of GIRK2 channel activation via SSTR5 in transfected HEK293 cells (fluorescence membrane potential assay) [2]: 16.5 nM
receptor internalization in U2OS cells transfected with SSTR5-tGFP, 10^-9 to 10^-5 M, 7 h; the cell gives 10^-5 M (10^-6 M) (% of activity) [2]: 43.9
IC50 [4]: 43.9 nM
IC50 [5]: 5.5 nM
IC50 [6]: 2.73 nM
IC50 [7]: 0.37 nM
Compound: Pasireotide (peptide)
